Data set [1] deals with PP1183, putative phosphopantetheinyl transferase of Pseudomonas putida KT2440 (Pseudomonas putida KT2440). Put plainly: cell-based or functional assay.
The target in data set [2] is PcpS, phosphopantetheinyl transferase of Pseudomonas aeruginosa PAO1 (Pseudomonas aeruginosa PAO1). Put plainly: cell-based or functional assay.
The target of data set [3] is Sfp, phosphopantetheinyl transferase of Bacillus subtilis subsp. spizizenii ATCC6633 (Bacillus subtilis subsp. spizizenii ATCC6633). Put plainly: cell-based or functional assay.
Data set [4] relates to BpsA, single module non-ribosomal peptide synthetase of Streptomyces lavendulae ATCC 11924, purified recombinant 6His-tagged protein (apo form).
Data set [5] has as its system E. coli harbouring an activating PPTase. Put plainly: In vivo pigment synthesis activity of BpsA derivatives relative to wild type BpsA. The note with it: for Relative activity (in vivo pigment synthesis relative to wild type BpsA): E. coli, supernatant A590. In kind it is cell-based. From the text:
A detailed description of the method used for generation of mBpsA derivatives is given in Section 4.15. Briefly, a plasmid containing bpsA lacking its native T-domain (pBPSA3) was created. This plasmid contained restriction enzyme sites which were subsequently used to introduce foreign T-domain sequence. Foreign T-domains were then amplified from the chromosomal DNA of their host organisms and introduced into pBPSA3 to generate mBpsA derivatives which contained T-domains from foreign NRPS proteins in place of the native T-domain. Only the final embodiment of the T-domain swapping platform is described in this application. This embodiment is the result of rational in-silico design as well as trial and error, which are not described. Using this final platform, five different mBpsA derivatives were generated and subsequently assessed for in vivo pigment synthesis capacity in E. coli harbouring an activating PPTase. Table 3.1 gives a summary of the mBpsA derivatives generated as well as their in vivo pigment synthesis activities relative to wild type BpsA. The derivation of in vivo pigment synthesis activity was as described in 4.10.
For second tier screening, up to 45 improved clones, along with a positive and negative control, were stored as duplicate glycerol stocks in a 96wp. From this plate duplicate overnight cultures were established in LB supplemented with 0.4% glucose and appropriate antibiotics. […] Overnight cultures were grown for 16-20 h (37° C. 200 rpm) before transfer of 20 μl of each culture into a fresh well containing 130 μL LB supplemented with 115 mM L-Gln, 0.6 mM IPTG and appropriate antibiotics. Assay plates set up in this fashion contained duplicate cultures for each clone from two separate overnights. Assay plates were then wrapped in foil and incubated for 6-24 h (18° C., 200 rpm), depending on activity of improved clones. After incubation cells were collected at the corner of each well by centrifugation and OD 590 values determined using a microplate reader. Assays were repeated at least twice before determination of clones for sequence analysis.
In vivo pigment synthesis efficiencies for recombinant BpsA proteins described in Section 3.2 were derived from three separate assays. This was necessary due to the fact that pigment synthesis of wild type BpsA saturate before activity of mBpsA derivatives was detectable. Replicate cultures for determination of in vivo pigment synthesis activity were established from overnight starter cultures in a 96 wp as described in Section 4.9.3 The values presented are derived as follows: quadruplicate values for WT BpsA and oBpsA (mutant with reduced activity) were determined after 3 h, at which point pigment production was not saturated for WT. A separate quadruplicate assay was then run to obtain a value for slEntF by comparison to oBpsA after 12 h. Quadruplicate values for slPsT and slPvdD2 were then obtained in a separate assay by comparison to slEntF after 12 h.

Several values for one entry are separate records, joined by “and”; a condition that tells them apart may be missing. Equal entries are not always repeated.

In the case of “The peptide carrier protein of the Microcysitis aeruginosa NRPS/PKS MycG (mPCP), purified recombinant His6 tagged”, the IC50 (carrier protein competition with BpsA for limiting CoA) turned out to be 180 nM in data set [1], 990 nM in data set [2] and 150 nM in data set [3]. The kcat/Km (estimate derived from IC50) (Min^-1 · µM^-1) is 6.3 in data set [1], 5.55 in data set [2] and 3.33 in data set [3].

As for “The peptide carrier protein of the first module of the Pseudomonas aeruginosa NRPS PvdD (pPCP), puri”, the results for the IC50 (carrier protein competition with BpsA for limiting CoA) in data set [1], in data set [2] and in data set [3] were 280 nM, 560 nM and 450 nM, respectively. Also, the kcat/Km (estimate derived from IC50) (Min^-1 · µM^-1) in data set [1] is 4.1; in data set [2], 9.84; in data set [3], 1.11.

In the case of “PcpS, phosphopantetheinyl transferase of Pseudomonas aeruginosa PAO1”, in data set [4], the Km (BpsA as variable substrate), BpsA coupled indigoidine assay came out at 6.5 µM; the kcat (BpsA as variable substrate), BpsA coupled indigoidine assay came out at 0.687 s⁻¹; the kcat/Km (BpsA as variable substrate), BpsA coupled indigoidine assay was determined as 107000 M⁻¹ s⁻¹.

For “slDhbF: mBpsA with T-domain from first module of dhbF of B. subtilis; SEQ ID NO: 13”, in data set [5], the “Relative activity (in vivo pigment synthesis relative to wild type BpsA)” value (“Relative activity” below) came out at 0%.

Regarding “The aryl carrier protein from Nostoc punctiforme protein HetM (npArCP), purified recombinant His6 tagged”, the IC50 (carrier protein competition with BpsA for limiting CoA) came to 6000 nM in data set [1], 8460 nM in data set [2] and 140 nM in data set [3]. The values for the kcat/Km (estimate derived from IC50) (Min^-1 · µM^-1) in data set [1], in data set [2] and in data set [3] were 0.19, 0.65 and 3.51, respectively.

B1: slEntF: mBpsA with T-domain from entF gene of E. coli W3110; SEQ ID NO: 11 (protein)
chain: MTLQETSVLEPTLQGTTTLPGLLAQRVAEHPEAIAVAYRDDKLTFRELASRSAALADYLEHLGVSADDCVGLFVEPSIDLMVGAWGILNAGAAYLPLSPEYPEDRLRYMIENSETKIILAQQRLVSRLRELAPKDVTIVTLRESEAFVRPEGTEAPAARSARPDTLAYVIYTSGSTGKPKGVMIEHRSIVNQLGWLRETYAIDRSKVILQKTPMSFDAAQWEILSPANGATVVMGAPGVYADPEGLIETIVKHNVTTLQCVPTLLQGLIDTEKFPECVSLQQIFSGGEALSRLLAIQTTQEMPGRALINVYGPTETTINSSSFPVDPADLDEGPQSISIGSPVHGTTYHILDKETLKPVGVGEIGELYIGGIQLARGYLHRDDLTAERFLEIELEEGAEPVRLYKTGDLGQWNNDGTVQFAGRADNQVKLRGYRVELDEISLAIENHDWVRNAAVIVKNDGRTGFQNLIACIELSEKEAALMDQGNHGSHHASKKSKLQVKAQLSNPGLRDDAELAARPAFDLEGAEPTPEQRARVFARKTYRFYEGGAVTQADLLGLLGATVTAGYSRKAADLAPAELGQILRWFGQYISEERLLPKYGYASPGALYATQMYFELEGVGGLKPGYYYYQPVRHQLVLISEREATGKATAQIHFIGKKSGIEPVYKNNILEVLEIETGHMVGLFEQILPAYGLDIHDRAYEPAVKDLLDVADEDYYLGTFELVPHAGARDDQAEVYVQTHGGKVAGLPEGQYRYENGELTRFSDDIVLKKHVIAINQSVYQAASFGISVYSRAEEEWLKYITLGKKLQHLMMNGLNLGFMSSGYSSKTGNPLPASRRMDAVLGANGVDSAPMYFFVGGRISDEQIGHEGMREDSVHMRGPAELIRDDLVSFLPDYMIPNRVVVFDRLPLSANGKIDVKALAASDQVNAELVERPGRAPKAGSETIIAAAFSSLLGCDVQDADADFFALGGHSLLAMKLAAQLSRQVARQVTPGQVMVASTVAKLATIIDREVAQESSRFVRLHAETGKARPVICWPGLGGYPMNLRSLAGEIGLGRSFYGVQSYGINEGETPYETITEMAKKDIEALKEIQPAGPYTLWGYSFGARVAFETAYQLEQAGEKVDNLFLIAPGSPKVRAENGKVWGREASFANRGYTTILFSVFTGTISGPDLDRCLETVTDEASFAEFISELKGIDVDLARRIISVVGQTYEFEYSFHELAERTLQAPISIFKAVGDDYSFLENSSGYSAEPPTVIDLDADHYSLLREDIGELVKHIRYLLGE
Take B1: the “Relative activity” value in data set [5] was 5.14% and 5.14 +/− 0.28%.

B2: slPvdD1: mBpsA with T-domain from first module of pvdD of P. aeruginosa PAO1; SEQ ID NO: 5 (protein)
chain: MTLQETSVLEPTLQGTTTLPGLLAQRVAEHPEAIAVAYRDDKLTFRELASRSAALADYLEHLGVSADDCVGLFVEPSIDLMVGAWGILNAGAAYLPLSPEYPEDRLRYMIENSETKIILAQQRLVSRLRELAPKDVTIVTLRESEAFVRPEGTEAPAARSARPDTLAYVIYTSGSTGKPKGVMIEHRSIVNQLGWLRETYAIDRSKVILQKTPMSFDAAQWEILSPANGATVVMGAPGVYADPEGLIETIVKHNVTTLQCVPTLLQGLIDTEKFPECVSLQQIFSGGEALSRLLAIQTTQEMPGRALINVYGPTETTINSSSFPVDPADLDEGPQSISIGSPVHGTTYHILDKETLKPVGVGEIGELYIGGIQLARGYLHRDDLTAERFLEIELEEGAEPVRLYKTGDLGQWNNDGTVQFAGRADNQVKLRGYRVELDEISLAIENHDWVRNAAVIVKNDGRTGFQNLIACIELSEKEAALMDQGNHGSHHASKKSKLQVKAQLSNPGLRDDAELAARPAFDLEGAEPTPEQRARVFARKTYRFYEGGAVTQADLLGLLGATVTAGYSRKAADLAPAELGQILRWFGQYISEERLLPKYGYASPGALYATQMYFELEGVGGLKPGYYYYQPVRHQLVLISEREATGKATAQIHFIGKKSGIEPVYKNNILEVLEIETGHMVGLFEQILPAYGLDIHDRAYEPAVKDLLDVADEDYYLGTFELVPHAGARDDQAEVYVQTHGGKVAGLPEGQYRYENGELTRFSDDIVLKKHVIAINQSVYQAASFGISVYSRAEEEWLKYITLGKKLQHLMMNGLNLGFMSSGYSSKTGNPLPASRRMDAVLGANGVDSAPMYFFVGGRISDEQIGHEGMREDSVHMRGPAELIRDDLVSFLPDYMIPNRVVVFDRLPLSANGKIDVKALAASDQVNAELVERPYRAPGSELEQRIAAIWSEILGVERVGLDDNFFELGGHSLLATRVISRVRQEQQLDASLKALFERPVLEAFAQGLEREVAQESSRFVRLHAETGKARPVICWPGLGGYPMNLRSLAGEIGLGRSFYGVQSYGINEGETPYETITEMAKKDIEALKEIQPAGPYTLWGYSFGARVAFETAYQLEQAGEKVDNLFLIAPGSPKVRAENGKVWGREASFANRGYTTILFSVFTGTISGPDLDRCLETVTDEASFAEFISELKGIDVDLARRIISVVGQTYEFEYSFHELAERTLQAPISIFKAVGDDYSFLENSSGYSAEPPTVIDLDADHYSLLREDIGELVKHIRYLLGE
For B2, the “In vivo pigment synthesis capacity (qualitative)” value in data set [5] (E. coli with activating PPTase, pigment development agar or broth) is “completely inactive enzyme”. In addition, the “Relative activity” value in data set [5] is reported as 0%.

The values are drawn from patent US20130260436A1, “Methods of Identifying and Characterizing Natural Product Gene Clusters” (Victoria LInk Limited, priority 2010, published 2013).
